In patent US20120165340:

Target: FLAG-HA-PTEN (UniProt P60484)
Sequence (P60484 whole entry): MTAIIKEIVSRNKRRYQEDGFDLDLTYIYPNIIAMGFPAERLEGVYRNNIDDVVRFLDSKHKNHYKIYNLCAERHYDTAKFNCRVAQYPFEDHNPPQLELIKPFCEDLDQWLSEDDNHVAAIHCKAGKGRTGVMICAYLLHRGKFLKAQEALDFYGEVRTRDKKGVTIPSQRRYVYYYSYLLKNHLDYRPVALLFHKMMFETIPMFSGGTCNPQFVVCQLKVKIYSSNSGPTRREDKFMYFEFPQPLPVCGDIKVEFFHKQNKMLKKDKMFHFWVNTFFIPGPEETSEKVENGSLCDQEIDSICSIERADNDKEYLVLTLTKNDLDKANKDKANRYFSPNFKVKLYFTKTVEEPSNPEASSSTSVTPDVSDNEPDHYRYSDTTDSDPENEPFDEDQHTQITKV

c-src
tyrosine phosphorylation of PTEN (Western blot with 4G10 and anti-pY240, FIG. 15): although src and lyn both phosphorylate PTEN on tyrosine, the phosphorylation of Y240 is much greater in the presence of lyn than when src is expressed with PTEN
tyrosine phosphorylation sites on PTEN identified by mass spectrometry: We identified four sites of tyrosine phosphorylation in the PTEN phosphatase domain (Y46, Y68, Y155 and Y174) and two sites in the PTEN C2 domain (Y240 and Y315)
